This note sets out measurements from patent publication US20160237157A1 (published 2016).

In assay [1] the target is human FGFR4 expressed at the cell surface (human, UniProt P22455 22-802). As to the kind of experiment: cell-based or functional assay.
For assay [2], the target named is T1, human FGFR4 (soluble, Part B: SPR and FGFR4 ELISA) (human, UniProt P22455 22-369).
T1 construct: Injected over immobilized IgG in SPR (0.48-1000 nM) and immobilized in the FGFR4 ELISA
T1 sequence: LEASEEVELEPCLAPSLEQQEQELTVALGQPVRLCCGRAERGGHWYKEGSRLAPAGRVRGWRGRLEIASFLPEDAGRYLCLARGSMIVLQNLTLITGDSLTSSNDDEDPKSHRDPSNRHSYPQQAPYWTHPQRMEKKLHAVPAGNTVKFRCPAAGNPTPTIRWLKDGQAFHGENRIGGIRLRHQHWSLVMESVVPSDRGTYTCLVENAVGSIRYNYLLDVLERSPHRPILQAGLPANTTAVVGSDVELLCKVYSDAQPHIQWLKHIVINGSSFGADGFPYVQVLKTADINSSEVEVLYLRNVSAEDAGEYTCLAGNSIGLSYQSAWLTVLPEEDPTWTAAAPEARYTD
Put plainly: surface plasmon resonance, compared with chLD1. A general note: SPR reads the build-up and loss of mass on a sensor chip optically.

B1: chimeric LD1 (chLD1) (antibody, V domains shown)
VH: EVQLQQPGAVLVRPGTSVKLSCKASGYTFTNHWMNWVKQRPGQGLEWIGMIHPSDSETTLDQKFKDKATLTVDKSSSTAYMQLNRPTSEDSAVYYCTRGDISLFDYWGQGTTVTVSS
VL: DIQMTQTTSSLSASLGDRVTITCRTSQDISNFLNWYQQKPDGTFKILISYTSRLHSGVPSRFSGSGSGTDYSLTISTLEQEDFATYFCQQGNALPYTFGGGTKLEIE
For B1, in assay [1], the “CYP7α1 expression in HEP3B cells without added FGF19, fold increase” value came out at 2 fold; the “CYP7α1 expression in HUH7 cells in the absence of FGF19, fold increase” value came to 3.5 fold; the “CYP7α1 expression in HUH7 cells in the presence of FGF19, fold increase” value worked out at 2.9 fold.

B2: hLD1.vA (antibody, V domains shown)
VH: EVQLVESGGGLVQPGGSLRLSCAASGYTFTNHWMNWVRQAPGKGLEWVGMIHPSDSETTLDQKFKDRFTISADTSKNTAYLQMNSLRAEDTAVYYCTRGDISLFDYWGQGTLVTVSS
VL: DIQMTQSPSSLSASVGDRVTITCRTSQDISNFLNWYQQKPGKAPKLLIYYTSRLHSGVPSRFSGSGSGTDFTLTISSLQPEDFATYYCQQGNALPYTFGQGTKVEIKR
Regarding B2, the “fold decrease of affinity against chLD1” value in assay [2] was ~5 fold.
